Common to all, as to assay: Luminex, supernatant
For assay [1], the target named is SARS-CoV-2 Spike Protein (RBD)(R319-F541).mFc (SARS-CoV-2).
For assay [2], the target named is SARS-CoV-2 Spike Protein (RBD)(R319-F541).hFc (SARS-CoV-2).
Assay [3] has as its target Human SARS Coronavirus Spike S1 Subunit Protein (His Tag) (Sino 40150-V08B1) (Human SARS Coronavirus, UniProt P59594 14-667).

B1: mAb10964 (antibody, V domains shown)
VH: QVQLQESGPGLVKPSETLSLTCTVSGGSINNYYWIWIRQPPGKGLEWIGYIYHSGSTNYNPSLKSRVTISVDTSKNQFSLKVSSVTAADTAVYYCANMVRGVYEDDYWGQGTLVTVSS
VL: DIQMTQSPSSLSASVGDRVTITCRASQSISNYLNWYQQKPGKAPKLLIFAASSLRSGVPSRFSGSGSGTDFTLTISSLHPEDFATYYCQQNYNTPLTFGPGTKVDIKR
On to B1, for which the MFI was found to be 32400 MFI in assay [1] and 33100 MFI in assay [2].

B2: mAb10965 (antibody, V domains shown)
VH: EVQLVESGGGLIQPGGSLRLSCAASVFTVSYNYMSWVRQAPGKGLEWVSVIYSGGSTYYADSVKGRFTISRDNSKNTLYLQMNSLRAEDTAVYYCARALPGWGGSFEYFDYWGQGTLVTVSS
VL: not shown
With B2, the MFI was 27100 MFI in assay [1] and 29600 MFI in assay [2].

B3: mAb10989 (antibody, V domains shown)
VH: QVQLVQSGAEVKKPGASVKVSCKASGYIFTGYYMHWVRQAPGQGLEWMGWINPNSGGANYAQKFQGRVTLTRDTSITTVYMELSRLRFDDTAVYYCARGSRYDWNQNNWFDPWGQGTLVTVSS
VL: QSALTQPASVSGSPGQSITISCTGTSSDVGTYNYVSWYQQHPGKAPKLMIFDVSNRPSGVSDRFSGSKSGNTASLTISGLQAEDEADYYCSSFTTSSTVVFGGGTKLTVLG
For B3, the MFI in assay [1] was 19600 MFI; in assay [2], 22400 MFI.

B4: mAb10969 (antibody, V domains shown)
VH: QVQLVESGGGVVQPGRSLRLSCAASGFTFSSYAMHWVRQAPGKGLEWVAVISYDGSNKYYADSVKGRFTISRDNSKNTLYLQMNSLRAEDTAVYYCARDGRTITMVRGVIDDAFDIWGQGTMVTVSS
VL: not shown
Consider B4, for which the MFI in assay [1] is 31400 MFI.

B5: mAb10967 (antibody, V domains shown)
VH: EVQLVESGGGLVQPGGSLRLSCAASGFTVSSNYMSWVRQAPGKGLEWVSVIYPGGSTFYADSVKGRFTISRDNSKNTLYLQMNSLRAEDTAVYYCARDQRDFAWGQGTLVTVSS
VL: DIQMTQSPSSLSASVGDRVTITCQASQDISNYLNWYQQKPGKAPKLLIYDASNLETGVPSRFSGSGSGTDFTFTISGLQPEDIATYYCQQYDNLPPTFGQGTRLEIKR
For B5, the MFI in assay [1] is 29600 MFI; in assay [2] it was 28700 MFI.

B6: mAb10955 (antibody, V domains shown)
VH: EVQLVESGGGLVQPGGSLRVSCAASGFTVSRNYMSWVRQAPGKGLEWVSVIYSGGSTFYADSVKGRFTISRDNSKNTLYLQMNSLRAEDTAIYYCARYIPRFDPWGQGTLVTVSS
VL: DIQMTQSPSSLSASVGDRVTITCQASQDISNYLNWFQQKPGRAPKLLIYDASNLETGVPSRFSGSGSGTDFTFTISSLQPEDIATYYCQQYDNLPITFGQGTRLEIKR
Consider B6, for which the MFI came out at 30800 MFI in assay [1] and 31200 MFI in assay [2].

B7: mAb10954 (antibody, V domains shown)
VH: EVQLVESGGGLVQPGGSLRLSCAASGITVSSNYMSWVRQAPGKGLEWVSLIYSGGSTYYADSVKGRFTISRDNSKNTLYLQMNSLRVEDTAVYYCARDHGMAAAGYNYWGQGTLVTVSS
VL: DIQMTQSPSSLSASVGDRVTITCQASQDINKYLNWYQQKPGKAPKLLIYDASNLETGVPSRFSGSGSGTDFTFTINSLQPEDFATYFCQQYDNLPPAFGQGTKVEIKR
For B7, the figures for the MFI in assay [1] and in assay [2] were 31300 MFI and 31800 MFI, respectively.

B8: mAb10933 (antibody, V domains shown)
VH: QVQLVESGGGLVKPGGSLRLSCAASGFTFSDYYMSWIRQAPGKGLEWVSYITYSGSTIYYADSVKGRFTISRDNAKSSLYLQMNSLRAEDTAVYYCARDRGTTMVPFDYWGQGTLVTVSS
VL: DIQMTQSPSSLSASVGDRVTITCQASQDITNYLNWYQQKPGKAPKLLIYAASNLETGVPSRFSGSGSGTDFTFTISGLQPEDIATYYCQQYDNLPLTFGGGTKVEIKR
In assay [3], B8 registered an MFI of 18 MFI.

B9: mAb10939 (antibody, V domains shown)
VH: EVQLVESGGGLVQPGGSLRLSCAASGLTVSSNYMNWVRQVPGKGLEWVSVIYSGGSKFYVDSVKGRFTISRHNSKNTLYLQMNSLRPEDTAVYYCTRDAQYYGMDVWGQGTTVTVSS
VL: DIQMTQSPSSLSASVGDRVTITCRASQSISTYLHWYQQKPGEAPKLLIYAASSLQSGVPSRFSGSGSGTDFTLTISSLQPEDFATYYCQQSYSTPPEIFGQGTKLEIKR
Take B9: the MFI is 33900 MFI in assay [1] and 32900 MFI in assay [2].

B10: mAb10956 (antibody, V domains shown)
VH: EVQLVESGGGLVQPGGSLRLSCAASGLTVSSNYMSWVRQAPGKGLEWVSVIYSGGSTFYADSVKGRFTISRDNSKNTLYLQMNSLRAEDTAVYYCARDLIKYGMDVWGQGTTVTVSS
VL: not shown
For B10, the MFI in assay [1] worked out at 28300 MFI; in assay [2], 30200 MFI.

B11: mAb10932 (antibody, V domains shown)
VH: EVQLVESGGGLVQSGGSLRLSCAASGLTVSSNYMSWVRQAPGKGLEWVSVIYSGGSTFYSDSVKGRFTISRHNSKNTLYLQMNSLRAEDTAVYYCARARGDAFDIWGQGTMVTVSS
VL: not shown
As for B11, the MFI in assay [1] and in assay [2] was 30600 MFI in each case.

B12: mAb10915 (antibody, V domains shown)
VH: EVQLVESGGGLVQPGGSLRLSCAASGFTVSSNYMNWVRQAPGKGLEWVSVIYSGGSTFYADSVKGRFTISRHNSKNTLYLQMNSLRPEDTAVYYCARDLGGYFDYWGQGTLVTVSS
VL: not shown
On to B12, for which the MFI in assay [1] was determined as 31800 MFI; in assay [2], 32400 MFI; in assay [3], 21 MFI.

B13: mAb10982 (antibody, V domains shown)
VH: EVQLVESGGGLVQPGGSLRLSCAASGLTVSSNYMSWVRQAPGKGLEWVSVIYSGGTTYYADSVKGRFTISRHNSKNTLSLQMNSLRAEDTAVYYCARGEGANYYGMDVWGQGTTVTVSS
VL: QSVLTQPPSVSGAPGQRVTISCTGSSSNIGTGYDVHWYQQLPGTAPKLLIYGNSNRPSGVPDRFSGSKSGTSASLAITGLQAEDEADYYCQSYDSSLSGYVVFGGGTKLTVLG
With B13, the MFI in assay [1] was 23300 MFI; in assay [2], 23000 MFI; in assay [3] it was 24 MFI.

B14: mAb10966 (antibody, V domains shown)
VH: EVQLVESGGGLVQPGGSLRLSCAASGLTVSSNYMSWVRQAPGKGLEWVSVIYSGGSTFYADSVKGRFTISRDNSKNTLYLQMNSLRPEDTAVYYCAREGRIAATGYGMDVWGQGTTVTVSS
VL: not shown
Take B14: the MFI in assay [1] was 30400 MFI; in assay [2] it was 30800 MFI.

B15: mAb10971 (antibody, V domains shown)
VH: EVQLVESGGGLIQPGGSLRLSCAASGVTVSSNYMSWVRQAPGKGLEWVSVIYSGGSTFYSDSVKGRFSISRDNSKNTLYLQMNSLRAEDTAVYYCARDLYYYGMDVWGQGTTVTVSS
VL: DIQLTQSPSFLSASVGDRVTITCRASQGISTYLAWYQQKPGKAPKLLIYAASTLQSGVPSRFSGSGSGTEFTLTISSLQPEDFATYYCQQLDSYPGLTFGGGTKVEIKR
B15: the figures for the MFI in assay [1] and in assay [2] were 28700 MFI and 30000 MFI, respectively.

B16: mAb10957 (antibody, V domains shown)
VH: EVQLVESGGGLVQPGGSLRLSCAASGVTVSSNYMSWVRQAPGKGLEWVSVIYSGGSTFYADSVKGRFTISRDNSKNTLFLQMNSLRIEDTAVYYCARDLGPYGMDVWGQGTTVTVSS
VL: DIQLTQSPSFLSASVGDRVTITCRASQGISSYLAWYQQKPGKAPKLLIYAASTLQSGVPSRFSGSGSGTQFILTISSLQPEDFATYYCQQLNSYPGFTFGPGTKVDIKR
In the case of B16, the results for the MFI in assay [1] and in assay [2] were 18700 MFI and 22600 MFI, respectively.
